Here are results for one molecule from PMC9254494, “Modulation of synaptic plasticity, motor unit physiology, and TDP-43 pathology by CHCHD10” (Acta Neuropathologica Communications, 2022).

The assay concerns the target Recombinant full-length human TDP-43 (human, UniProt Q13148 1-414). The assay can be described thus: cell-based or functional assay.

Recombinant full-length human TDP-43, sequence (Q13148 whole entry): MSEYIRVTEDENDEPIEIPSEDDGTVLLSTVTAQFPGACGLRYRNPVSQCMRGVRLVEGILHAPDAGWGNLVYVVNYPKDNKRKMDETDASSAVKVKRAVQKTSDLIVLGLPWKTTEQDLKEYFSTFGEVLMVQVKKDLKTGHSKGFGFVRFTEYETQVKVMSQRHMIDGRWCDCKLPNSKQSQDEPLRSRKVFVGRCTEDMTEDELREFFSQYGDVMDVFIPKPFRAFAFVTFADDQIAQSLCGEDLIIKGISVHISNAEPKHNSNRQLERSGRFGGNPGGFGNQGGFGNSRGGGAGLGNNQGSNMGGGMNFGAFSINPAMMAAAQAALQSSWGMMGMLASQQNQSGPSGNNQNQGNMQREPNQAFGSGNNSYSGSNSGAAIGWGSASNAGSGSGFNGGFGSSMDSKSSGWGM

B1: His-tagged CHCHD10^S59L recombinant protein (natural protein, human, UniProt Q8WYQ3 17-142, looked up)
chain: AAPSAHPPAHPPPSAAAPAPAPSGQPGLMAQMATTAAGVAVGLAVGHVMGSALTGAFSGGSSEPSQPAVQQAPTPAAPQPLQMGPCAYEIRQFLDCSTTQSDLSLCEGFSEALKQCKYYHGLSSLP
On to B1, for which the “area of high-height particles > 10 nm by atomic force microscopy after co-incubation of TDP-43 (1 μM) with CHCHD10^S59L (1 μM), 37 °C, 8 h, shaking, against TDP-43 alone” value was above 3 fold.
